Data: patent US20190241662A1 (ADAGENE, published 2019)

T1: recombinant human CTLA4-Fc (human, UniProt P16410 36-162)
T1 construct: also called human CTLA4 fused with human FC fragment; CTLA4-Fc (Sino Biological, 11159-H03H)
T1 sequence (looked up): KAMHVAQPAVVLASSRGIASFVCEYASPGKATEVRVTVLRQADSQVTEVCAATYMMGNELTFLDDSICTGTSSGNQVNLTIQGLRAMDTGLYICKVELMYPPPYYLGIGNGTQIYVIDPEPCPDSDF

T2: canine CTLA4 fused with His tag (canine, UniProt Q9XSI1 36-162, limits assumed)
T2 construct: also called dog CTLA4
T2 sequence (looked up): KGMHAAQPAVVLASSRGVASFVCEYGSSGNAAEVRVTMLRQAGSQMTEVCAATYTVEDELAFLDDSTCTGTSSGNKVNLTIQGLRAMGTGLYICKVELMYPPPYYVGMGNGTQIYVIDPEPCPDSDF

T3: recombinant human CTLA4 protein (construct not stated) (human, UniProt P16410 36-162, limits assumed)
T3 construct: also called biotinylated human CTLA4; human recombinant CTLA4 proteins
T3 sequence (looked up): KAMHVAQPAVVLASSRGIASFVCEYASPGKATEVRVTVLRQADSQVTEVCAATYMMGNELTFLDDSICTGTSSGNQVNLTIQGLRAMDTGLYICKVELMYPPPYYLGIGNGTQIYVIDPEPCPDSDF

T4: monkey CTLA4 (SPR analyte, construct not stated) (monkey, UniProt G7PL88 36-161)
T4 sequence: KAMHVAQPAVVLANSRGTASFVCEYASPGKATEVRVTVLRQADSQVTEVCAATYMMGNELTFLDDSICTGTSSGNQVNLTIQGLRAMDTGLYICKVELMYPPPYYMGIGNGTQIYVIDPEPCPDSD

T5: human Tim3 on HEK293F cells (human, UniProt Q8TDQ0 22-301)
T5 construct: whole, on cells
T5 sequence (looked up): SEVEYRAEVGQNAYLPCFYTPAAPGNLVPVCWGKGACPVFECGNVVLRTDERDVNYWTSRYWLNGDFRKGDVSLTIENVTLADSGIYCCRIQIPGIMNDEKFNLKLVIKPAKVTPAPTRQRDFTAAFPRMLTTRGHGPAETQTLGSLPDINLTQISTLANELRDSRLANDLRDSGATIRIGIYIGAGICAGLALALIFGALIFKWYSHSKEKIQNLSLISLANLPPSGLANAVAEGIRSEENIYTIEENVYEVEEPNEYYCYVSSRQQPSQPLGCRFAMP

T6: recombinant human CTLA4 fused with human Fc and His tag (human, UniProt P16410 36-162, limits assumed)
T6 construct: Coated in the CD80 ELISA, biotinylated and in solution in the CD86 ELISA; also called biotinylated human CTLA4 fused with human FC and His tag
T6 sequence (looked up): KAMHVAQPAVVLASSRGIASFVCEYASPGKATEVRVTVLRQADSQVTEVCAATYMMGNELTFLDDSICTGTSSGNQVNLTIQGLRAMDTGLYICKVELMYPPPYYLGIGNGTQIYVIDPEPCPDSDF


Tests used:
[1] = molecular target: T1, recombinant human CTLA4-Fc; assay: ELISA, coated human CTLA4-Fc
Protocol: (§1) The ability of certain IgG antibodies to bind to soluble human (FIG. 1A, Table 5A) or canine (FIG. 1B, Table 5B) CTLA4 was next tested. 1 μg/mL human CTLA4 fused with human FC fragment, or canine CTLA4 fused with His tag, were prepared and used to coat an ELISA plate at 2-8° C. overnight. After blocking, 100 μL serial diluted IgG antibodies were added and incubated at 37° C. for 1 hour. Plates were washed for four times and then incubated with HRP-anti human IgG (Fab specific) (1:6000 dilution) at 37° C. for 1 hour. Plates were washed again four times and incubated with TMB substrate for 15 minutes at room temperature. […] The data was analyzed by Graphpad Prism 6 with nonlinear fitting.

[2] = molecular target: T2, canine CTLA4 fused with His tag; assay: ELISA, coated canine CTLA4-His
Protocol: as §1

[3] = molecular target: T3, recombinant human CTLA4 protein …; assay: SPR (Biacore T200), IgG captured by anti-human Fc
Text: (§2) Binding affinity and kinetics of antibodies against human, monkey and mouse CTLA4 were examined (Table 4) by surface plasmon resonance (SPR) analysis using a Biacore™ T200 instrument (Biacore AB, Uppsala, Sweden) according to the manufacturer's guidelines. Anti-Human IgG (Fc) antibody from Human Antibody Capture Kit (GE BR-1008-39) was immobilized on CM5 chips by coupling of its amine groups onto carboxylated surfaces of sensor chips according to the instructions of an Amine Coupling kit (GE Biacore #BR-1000-50). […] The association and dissociation curves were fitted to a 1:1 Langmuir binding model using Biacore T200 Evaluation Software (Biacore AB) according to the manufacturer's guidelines.

[4] = molecular target: T4, monkey CTLA4 (SPR analyte, construct …); assay: SPR (Biacore T200), IgG captured by anti-human Fc
Text: as §2

[5] = molecular target: mouse CTLA4 (SPR analyte, construct not stated) (mouse, UniProt P09793 36-162, limits assumed); assay: SPR (Biacore T200), IgG captured by anti-human Fc
Text: as §2

[6] = molecular target: T5, human Tim3 on HEK293F cells; assay: flow cytometry, transfected HEK293F cells [Cont.]
Protocol: (§3) Antibody selectivity was next examined. Human CTLA4, PD1, LAG3, Tim3, B7H3, CD95, TNFR1, OX40, CD40, PD-L1, BLTA, VISTA, PDL2, ICOS and B7H4 were transiently overexpressed on the surface of HEK293F cells. Transfected cells were washed in pre-chilled 1×PBSA buffer (1.76 mM KH2PO4, 10.14 mM Na2HPO4.12H2O, 2.68 mM KCl, 136.89 mM NaCl and 1% BSA), then incubated with 100 nM test antibodies for 1 hour on ice. Cells were washed once with staining buffer, and Alexa Fluor® 647 conjugated mouse anti-human FC antibodies were added and incubated for 30 minutes on ice, protected from light. Samples were washed once with staining buffer prior to analysis by flow cytometry.

[7] = molecular target: T6, recombinant human CTLA4 fused with …; assay: competition ELISA: plate-bound human CTLA4-Fc-His, biotinylated CD80 as blocked ligand
Protocol: Antibodies were then tested for their ability to block binding of CTLA4 to its cognate ligands CD80 and CD86 by ELISA. […] Plates were blocked with PBS supplemented with 2% (w/v) skim milk at 37° C. for 1 hour. […] Plates were washed four times, and 100 μL HRP-neutravidin (1:1000) was added to each well and incubated at 37° C. for 1 hour. Plates were washed as previously described, and 50 μL TMB substrate solution was added and incubated at room temperature for 5 minutes before the reaction was stopped by 50 μL sulfate acid (2M).

[8] = molecular target: T7, human CD40 on HEK293F cells (human, UniProt P25942 21-277); assay: flow cytometry, transfected HEK293F cells [Cont.]
T7 construct: whole, on cells
Protocol: as §3

T7 sequence (P25942 21-277): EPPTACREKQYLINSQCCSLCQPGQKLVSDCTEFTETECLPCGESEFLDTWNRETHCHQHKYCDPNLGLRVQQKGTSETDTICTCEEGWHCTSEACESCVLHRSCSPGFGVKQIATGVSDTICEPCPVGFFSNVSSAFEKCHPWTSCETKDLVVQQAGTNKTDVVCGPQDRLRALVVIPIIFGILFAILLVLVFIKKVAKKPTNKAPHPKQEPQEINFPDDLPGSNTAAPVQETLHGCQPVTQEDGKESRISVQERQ

Binder	EC50 [1] [nM]	Kd [1] [nM]	LogEC50 [1]	EC50 [2] [nM]	Kd [2] [nM]	LogEC50 [2]	Kd [3] [nM]	Kd [4] [nM]	Kd [5] [nM]	binding result [6]	IC50 (read off the curve) [7] [nM]	binding result [8]
TY21687 (antibody, V domains shown, human IgG1 (hIgG1) from Fab hit B15700) VH: EVQLVESGGGLVQPGGSLRLSCAASGFTFSGYAIHWVRQAPGKGLEWIGIISPSGGGTKYAQKFQGRVTISRDNSKNTLYLQLNSLRAEDTAVYYCARHPFAYWGQGTLVTVSS VL: DIQLTQSPSSLSASVGDRVTITCRASQSVDFYGISFLDWYQQKPGKAPKLLIYDASNRATGIPSRFSGSGSGTDFTLTISSLQPEDFATYYCQQYVSSPPEYTFGQGTKVEIK	0.32	0.32	-9.49	0.745	0.75	-9.13	1.82	1.52	2.76	no binding (tested: 100 nM)	~20	
TY21585 (antibody, V domains shown, human IgG1 (hIgG1) from Fab hit B15709) VH: EVQLVESGGGLVQPGGSLRLSCAASGFTFSDYAIHWVRQAPGKGLEWIGIISPSSGSTNYAQKFQGRVTISRDNSKNTLYLQLNSLRAEDTAVYYCARDIHSGSSGYYYGFDVWGQGTLVTVSS VL: DIQLTQSPSSLSASVGDRVTITCRASESVDFFGISFLAWYQQKPGKAPKLLIYDASNRATGIPSRFSGSGSGTDFTLTISSLQPEDFATYYCQHYTSSPPVYTFGQGTKVEIK	0.555	0.56	-9.26	6.04	6.05	-8.22	8.15	8.26	1.71	no binding (tested: 100 nM)	~10	no binding (tested: 100 nM)
TY21691 (antibody, V domains shown, human IgG1 (hIgG1) from Fab hit B15736) VH: EVQLVESGGGLVQPGGSLRLSCAASGFTFSDYAIHWVRQAPGKGLEWIGIISPSGGSTKYAQKFQGRVTISRDNSKNTLYLQLNSLRAEDTAVYYCARLGYGYFDVWGQGTLVTVSS VL: DIQLTQSPSSLSASVGDRVTITCRASQSVDFYGISFLHWYQQKPGKAPKLLIYDASSLESGVPSRFSGSGSGTDFTLTISSLQPEDFATYYCVQALQLPLTFGQGTKVEIK							2.08	2.44	1.46		~20	
TY21591 (antibody, V domains shown, human IgG1 (hIgG1) from Fab hit B15756) VH: EVQLVESGGGLVQPGGSLRLSCAASGFSLSTGGVAVSWIRQAPGKGLEWIGEIYHSGSTYYSPSLKSRVTISRDNSKNTLYLQLNSLRAEDTAVYYCARRIATATYFDYWGQGTLVTVSS VL: DIQLTQSPSSLSASVGDRVTITCRASQTVFSRYLAWYQQKPGKAPKLLIYDASNRATGIPSRFSGSGSGTDFTLTISSLQPEDFATYYCQQSYYWPPWTFGQGTKVEIK	0.831	0.83	-9.08	0.707	0.71	-9.15	9.68	3.27			~10	no binding (tested: 100 nM)
